Consider 83 variants from the RNAGym collection of RNA variant scans (doi:10.1073/pnas.2313332121).

B1: TPR t1 (parent)
chain: GACCAAUCUGCCCUCAGAGCUCGAGAACAUCUUCGGAUGCAGAGGAGGCAGGCUUCGGUGGCGCGAUAGCGCCAACGUCCUCAACCUCCAAUGCAUCCCACCACAUGAUGAUGCCUGAAGAGCCUUGGUUUUUUG

This data set covers variants of B1. The data set can be described thus: polymerase ribozyme fitness, log enrichment relative to wild type (log ratio); higher = more active; in vitro selection for triplet polymerase activity. In short, it runs like this:
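Frozen incubation at −7 °C formed the core of a single, triplicate in vitro selection round applied to PCR-built, transcribed mutant libraries of each subunit of a heterodimeric triplet polymerase ribozyme. Extended constructs were gel-excised, captured with streptavidin beads and amplified by RT-PCR, and input and output libraries were Illumina-sequenced with a filter of ≥10 input reads and ≥1 read per output. Fitness is the logarithm of genotype enrichment relative to wild-type enrichment, with inverse-variance-weighted replicate averaging, and the logarithm is base 2.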
For the variant G35C G63U A74U A90G C123G G127C, the “polymerase ribozyme fitness (log ratio)” value is -6.64.
The figure for C62A C101A C114A is -3.81.
With A29U C49G C73U C76U C94A, the “polymerase ribozyme fitness (log ratio)” value is -3.55.
With C31U C88G the figure was -6.51.
The figure for C12U C104U is 0.248; for C12A C62U A83G A100C it is -3.89; for C56U C99U it is -3.34.
In the case of C53U U59G, the “polymerase ribozyme fitness (log ratio)” value is -0.253.
For U9A G19A G52U A105C A111G G120A, the “polymerase ribozyme fitness (log ratio)” value was -5.2.
Turning to G39A G52A C72U C85U A95C G113U, the “polymerase ribozyme fitness (log ratio)” value is -5.94.
For C11G G19A G47C G48A, the “polymerase ribozyme fitness (log ratio)” value is -3.86.
The figure for G48U U81G A91G G117U A119U is -7.47.
For C20A G36A A84G A118G, the “polymerase ribozyme fitness (log ratio)” value was -5.67.
On to C49A G122A, for which the “polymerase ribozyme fitness (log ratio)” value was -0.428.
In the case of U14G U21C G42U, the “polymerase ribozyme fitness (log ratio)” value was -3.13.
Consider C72G G128C, for which the “polymerase ribozyme fitness (log ratio)” value is -2.25.
The figure for U9C C12U U81A C89A is -1.67; for C11U A24G G47U G77U U116C it is -7.91.
On to A26U C49U A66G A84C C124G, for which the “polymerase ribozyme fitness (log ratio)” value is -4.9.
In the case of C11G A16U G58C A83C C89U U131A, the “polymerase ribozyme fitness (log ratio)” value was -3.15.
The figure for G51A U131A is -2.2.
The figure for A37U A50G G52A A111G G117A is -2.93.
With G58C A91U the figure was -2.24; with U33A G57U C124A U126A, -3.51.
As to G61C C80G G117C, the “polymerase ribozyme fitness (log ratio)” value was -7.35.
With A6U A18U C28U C70A C123G, the “polymerase ribozyme fitness (log ratio)” value is -6.38.
For G58A G135U, the “polymerase ribozyme fitness (log ratio)” value was -1.49.
Turning to U38G C79G, the “polymerase ribozyme fitness (log ratio)” value is -2.67.
The figure for C73G U133A is -1.27.
The figure for G10U G69A is -3.09; for G17U G52C C72U it is -2.43.
The figure for A100U G113C is -2.85.
Regarding A18G C22G C104A, the “polymerase ribozyme fitness (log ratio)” value is -5.54.
On to A16G G60A U81A G117U, for which the “polymerase ribozyme fitness (log ratio)” value is -4.21.
The figure for C15U G44U C85A C94U G117C A118U is -4.78.
Consider A18C C82A A84U, for which the “polymerase ribozyme fitness (log ratio)” value was -3.72.
On to G122A U130A, for which the “polymerase ribozyme fitness (log ratio)” value is -0.49.
On to G69U U96G, for which the “polymerase ribozyme fitness (log ratio)” value is -0.302.
As for C12G A18U G51U A74G C86A C124A, the “polymerase ribozyme fitness (log ratio)” value is -6.6.
Turning to C64A C79U C102A A119G, the “polymerase ribozyme fitness (log ratio)” value is -7.09.
As to A5G C15A G61A, the “polymerase ribozyme fitness (log ratio)” value is -0.776.
With C8A G45C G58A C97G U106A the figure was -3.12; with C11G G48C A66G G110A, -3.11.
For the variant C13U G45C C70U C124A, the “polymerase ribozyme fitness (log ratio)” value was -0.034.
Turning to A2G C20A C88U, the “polymerase ribozyme fitness (log ratio)” value is -4.8.
With A50G G63U U130A the figure was -2.47.
With A5C C15G U54G C89U U116G G117A C124G, the “polymerase ribozyme fitness (log ratio)” value is 0.693.
For C22G G45A, the “polymerase ribozyme fitness (log ratio)” value was -3.31.
Turning to A29G G47A U55A C56G, the “polymerase ribozyme fitness (log ratio)” value is -2.62.
For C70U C94G, the “polymerase ribozyme fitness (log ratio)” value is -0.729.
With G39U C80U C101A A111U, the “polymerase ribozyme fitness (log ratio)” value is -5.03.
For C20U C73U G110U G120U A121G, the “polymerase ribozyme fitness (log ratio)” value is -3.
With C11G G61C U78C U126A the figure was -4.7; with A5C A37U G39C C86A C124G, -3.87; with C3A G45A, -2.42.
Take G110A U112C G117A: the “polymerase ribozyme fitness (log ratio)” value was -4.79.
Regarding G52C C72A U78C, the “polymerase ribozyme fitness (log ratio)” value stood at 0.275.
Regarding G36C C104U, the “polymerase ribozyme fitness (log ratio)” value is -1.1.
The figure for G52A C53A G77A A84U G122A is -2.24; for C22A G42U G71U G113C it is -5.64; for C20G A50U U78C U96G U112A A118G it is -6.42.
As to U59G U81G U96G, the “polymerase ribozyme fitness (log ratio)” value was -3.9.
With C49U C79G C104A the figure was -5.16; with C72U U92A, -3.15; with C8U C11G G48C C56U C89U G117U, -1.01.
With C85A C115U, the “polymerase ribozyme fitness (log ratio)” value is -2.7.
The figure for C4U G44U G61A C80G C89G C114U U131G is -7.14; for A5U A6C G63U it is -1.11; for A43U C72U it is -1.17.
With A2G U7A C70U A74C the figure was -0.954.
For the variant G93A G135C, the “polymerase ribozyme fitness (log ratio)” value is -1.
On to G42C C64U, for which the “polymerase ribozyme fitness (log ratio)” value is -0.982.
With C8U C49G the figure was 0.889; with A66C, -1.32.
The figure for A18U C40G A83U is -4.16; for C8G G36A A121C U131G it is 1.28.
As to C101U G117C, the “polymerase ribozyme fitness (log ratio)” value is -3.39.
With A16U C124A the figure was -0.305; with A6U C73G, -1.46; with U14A C20G C40U G45A G63C U96G U112A G117A, -6.83.
The figure for A2U A16G A26U G60U A119G is -4.84; for G63A G71A it is -2.59.
With C11U C49A U55C G60A U87A C88G A95C A121U the figure was -2.74.
